This series has as its system Escherichia coli TOP10. Kind of series: shrunken log2 fold change of peptide-encoding DNA abundance (4.5 h post-induction vs induction); higher = less antimicrobial activity (less host growth inhibition). As to conditions: time post-induction: 4.5 h; library: site-saturation at positions 5, 18, 19, 20.
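Note: peptides expressed intracellularly from a pBAD plasmid library in pooled LB shake-flask culture, induced with 0.3% L-arabinose, DNA abundance read by NGS, three biological replicates, DESeq2 with apeglm shrinkage.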

Consider RRIRSRPPRLPRPRPRPTNFPRP, for which the “shrunken log2 fold change” value was found to be 0.0979.

Consider RRIRYRPPRLPRPRPRPTYVPRP, for which the “shrunken log2 fold change” value was -0.0567.

For RRIRMRPPRLPRPRPRPDYFPRP, the “shrunken log2 fold change” value is -0.121.

Take RRIRGRPPRLPRPRPRPNMDPRP: the “shrunken log2 fold change” value amounted to 0.265.

As for RRIRARPPRLPRPRPRPKTIPRP, the “shrunken log2 fold change” value stood at 0.038.

RRIRARPPRLPRPRPRPDMCPRP: the “shrunken log2 fold change” value is -0.335.

As to RRIRNRPPRLPRPRPRPQAKPRP, the “shrunken log2 fold change” value is -0.00911.

In the case of RRIRSRPPRLPRPRPRPSSPPRP, the “shrunken log2 fold change” value was -0.561.

Consider RRIRWRPPRLPRPRPRPVTPPRP, for which the “shrunken log2 fold change” value came to 0.666.

As for RRIRDRPPRLPRPRPRPLWLPRP, the “shrunken log2 fold change” value was 0.399.

With RRIRYRPPRLPRPRPRPESRPRP, the “shrunken log2 fold change” value was -0.12.

With RRIRGRPPRLPRPRPRPAKEPRP, the “shrunken log2 fold change” value came out at 0.414.

RRIRCRPPRLPRPRPRPKSFPRP: the “shrunken log2 fold change” value was -0.288.

Turning to RRIRQRPPRLPRPRPRPETGPRP, the “shrunken log2 fold change” value was 0.0496.

Regarding RRIRGRPPRLPRPRPRPAFKPRP, the “shrunken log2 fold change” value worked out at 0.177.

Take RRIRMRPPRLPRPRPRPMRHPRP: the “shrunken log2 fold change” value turned out to be 0.452.

Turning to RRIRNRPPRLPRPRPRPDHFPRP, the “shrunken log2 fold change” value was -0.0062.

As to RRIRCRPPRLPRPRPRPQDVPRP, the “shrunken log2 fold change” value is -0.176.

For the sequence RRIRMRPPRLPRPRPRPEHTPRP, the “shrunken log2 fold change” value was 2.63.

Take RRIRDRPPRLPRPRPRPKHEPRP: the “shrunken log2 fold change” value was 0.134.

With RRIRSRPPRLPRPRPRPLYSPRP, the “shrunken log2 fold change” value was -0.442.

Turning to RRIRWRPPRLPRPRPRPCGVPRP, the “shrunken log2 fold change” value was determined as 0.0164.

Take RRIRFRPPRLPRPRPRPWQIPRP: the “shrunken log2 fold change” value is -0.0302.

For RRIRLRPPRLPRPRPRPHFRPRP, the “shrunken log2 fold change” value was -0.102.

With RRIRNRPPRLPRPRPRPQWCPRP, the “shrunken log2 fold change” value is -0.0662.

RRIRPRPPRLPRPRPRPPPFPRP: the “shrunken log2 fold change” value came out at 0.277.

Consider RRIRHRPPRLPRPRPRPFFGPRP, for which the “shrunken log2 fold change” value is -0.0142.

Regarding RRIRTRPPRLPRPRPRPPNPPRP, the “shrunken log2 fold change” value amounted to 0.442.

With RRIRLRPPRLPRPRPRPNCGPRP, the “shrunken log2 fold change” value was -0.0908.

On to RRIRQRPPRLPRPRPRPGTRPRP, for which the “shrunken log2 fold change” value amounted to 0.111.

In the case of RRIRSRPPRLPRPRPRPGKWPRP, the “shrunken log2 fold change” value was -0.147.

Take RRIRGRPPRLPRPRPRPRPWPRP: the “shrunken log2 fold change” value amounted to 0.77.

Consider RRIRVRPPRLPRPRPRPITPPRP, for which the “shrunken log2 fold change” value came out at 0.12.

RRIRDRPPRLPRPRPRPSRHPRP: the “shrunken log2 fold change” value is 0.0369.

In the case of RRIRNRPPRLPRPRPRPIGLPRP, the “shrunken log2 fold change” value was -0.123.

Turning to RRIRPRPPRLPRPRPRPVLMPRP, the “shrunken log2 fold change” value is -0.161.

As to RRIRTRPPRLPRPRPRPTFCPRP, the “shrunken log2 fold change” value amounted to 0.147.

For RRIRTRPPRLPRPRPRPDYLPRP, the “shrunken log2 fold change” value was -1.61.

With RRIRYRPPRLPRPRPRPYPLPRP, the “shrunken log2 fold change” value is -0.146.

For RRIRYRPPRLPRPRPRPCTLPRP, the “shrunken log2 fold change” value came to 0.0191.

For RRIRMRPPRLPRPRPRPSQDPRP, the “shrunken log2 fold change” value is 0.224.

For the sequence RRIRRRPPRLPRPRPRPQDSPRP, the “shrunken log2 fold change” value was -0.0402.

Regarding RRIRNRPPRLPRPRPRPRHRPRP, the “shrunken log2 fold change” value was 0.202.

Consider RRIRMRPPRLPRPRPRPTHVPRP, for which the “shrunken log2 fold change” value is -0.00477.

With RRIRWRPPRLPRPRPRPHHDPRP, the “shrunken log2 fold change” value was -0.708.

Consider RRIRIRPPRLPRPRPRPGLWPRP, for which the “shrunken log2 fold change” value amounted to 0.0804.

As to RRIRSRPPRLPRPRPRPSYSPRP, the “shrunken log2 fold change” value came to 0.232.

As to RRIRERPPRLPRPRPRPTFWPRP, the “shrunken log2 fold change” value was -0.0352.

As to RRIRYRPPRLPRPRPRPDQLPRP, the “shrunken log2 fold change” value was -0.122.

Regarding RRIRDRPPRLPRPRPRPKVVPRP, the “shrunken log2 fold change” value is -0.01.

Regarding RRIRQRPPRLPRPRPRPCMFPRP, the “shrunken log2 fold change” value is -0.214.

On to RRIRYRPPRLPRPRPRPFDFPRP, for which the “shrunken log2 fold change” value is -0.409.

For the sequence RRIRFRPPRLPRPRPRPANSPRP, the “shrunken log2 fold change” value is -0.448.

As to RRIRMRPPRLPRPRPRPPCYPRP, the “shrunken log2 fold change” value is -0.0907.

Turning to RRIRKRPPRLPRPRPRPETAPRP, the “shrunken log2 fold change” value stood at 1.21.

Take RRIRNRPPRLPRPRPRPNQWPRP: the “shrunken log2 fold change” value is -0.171.

Take RRIRIRPPRLPRPRPRPETCPRP: the “shrunken log2 fold change” value was found to be 0.00626.

For the sequence RRIRRRPPRLPRPRPRPEFGPRP, the “shrunken log2 fold change” value came to 0.376.

For RRIRCRPPRLPRPRPRPKQFPRP, the “shrunken log2 fold change” value is -0.188.

Regarding RRIRSRPPRLPRPRPRPFRAPRP, the “shrunken log2 fold change” value is -0.0568.

RRIRVRPPRLPRPRPRPCKCPRP: the “shrunken log2 fold change” value is -0.239.

For the sequence RRIRDRPPRLPRPRPRPNSSPRP, the “shrunken log2 fold change” value is -0.675.

Turning to RRIRLRPPRLPRPRPRPMDAPRP, the “shrunken log2 fold change” value was 0.282.

For the sequence RRIRRRPPRLPRPRPRPHYCPRP, the “shrunken log2 fold change” value is -0.356.

For the sequence RRIRMRPPRLPRPRPRPMHHPRP, the “shrunken log2 fold change” value turned out to be 0.0123.

In the case of RRIRGRPPRLPRPRPRPCVGPRP, the “shrunken log2 fold change” value worked out at 0.729.

Turning to RRIRNRPPRLPRPRPRPYRHPRP, the “shrunken log2 fold change” value was -0.01.

RRIRDRPPRLPRPRPRPLTTPRP: the “shrunken log2 fold change” value stood at 0.135.

With RRIRLRPPRLPRPRPRPTWNPRP, the “shrunken log2 fold change” value was -0.114.

RRIRVRPPRLPRPRPRPHSNPRP: the “shrunken log2 fold change” value is -0.505.

In the case of RRIRHRPPRLPRPRPRPGQNPRP, the “shrunken log2 fold change” value is -0.226.

For the sequence RRIRLRPPRLPRPRPRPRGVPRP, the “shrunken log2 fold change” value was determined as 0.494.

Regarding RRIRLRPPRLPRPRPRPDTDPRP, the “shrunken log2 fold change” value worked out at 0.0475.

Consider RRIRSRPPRLPRPRPRPLGSPRP, for which the “shrunken log2 fold change” value stood at 0.193.

Regarding RRIRFRPPRLPRPRPRPLRKPRP, the “shrunken log2 fold change” value was 0.465.

Take RRIRWRPPRLPRPRPRPDMAPRP: the “shrunken log2 fold change” value amounted to 0.204.

Take RRIRRRPPRLPRPRPRPARNPRP: the “shrunken log2 fold change” value worked out at 3.18.

Consider RRIRGRPPRLPRPRPRPEQSPRP, for which the “shrunken log2 fold change” value came to 1.05.

With RRIRQRPPRLPRPRPRPHQAPRP, the “shrunken log2 fold change” value is -0.241.

As for RRIRNRPPRLPRPRPRPWAGPRP, the “shrunken log2 fold change” value is 0.163.

Regarding RRIRGRPPRLPRPRPRPSEPPRP, the “shrunken log2 fold change” value came to 0.413.

With RRIRNRPPRLPRPRPRPNHRPRP, the “shrunken log2 fold change” value is -0.216.

For the sequence RRIRERPPRLPRPRPRPLLNPRP, the “shrunken log2 fold change” value worked out at 0.0481.

With RRIRRRPPRLPRPRPRPMSRPRP, the “shrunken log2 fold change” value was -0.0357.

In the case of RRIRSRPPRLPRPRPRPYRNPRP, the “shrunken log2 fold change” value was -0.254.

As to RRIRWRPPRLPRPRPRPEEKPRP, the “shrunken log2 fold change” value was determined as 0.584.

As to RRIRRRPPRLPRPRPRPAVFPRP, the “shrunken log2 fold change” value turned out to be 0.45.

As to RRIRTRPPRLPRPRPRPHQIPRP, the “shrunken log2 fold change” value was 0.269.

RRIRYRPPRLPRPRPRPAWGPRP: the “shrunken log2 fold change” value amounted to 0.0852.

As for RRIRQRPPRLPRPRPRPYPIPRP, the “shrunken log2 fold change” value is -0.00931.

On to RRIRNRPPRLPRPRPRPCNFPRP, for which the “shrunken log2 fold change” value is -0.0737.

In the case of RRIRFRPPRLPRPRPRPMPRPRP, the “shrunken log2 fold change” value is 0.513.

On to RRIRVRPPRLPRPRPRPQCSPRP, for which the “shrunken log2 fold change” value is -0.18.

Turning to RRIRKRPPRLPRPRPRPMSIPRP, the “shrunken log2 fold change” value is -0.0141.

For the sequence RRIRTRPPRLPRPRPRPAWYPRP, the “shrunken log2 fold change” value is -0.172.

With RRIRCRPPRLPRPRPRPFMGPRP, the “shrunken log2 fold change” value was -0.585.

As for RRIRPRPPRLPRPRPRPYTHPRP, the “shrunken log2 fold change” value was -1.35.

In the case of RRIRSRPPRLPRPRPRPSKEPRP, the “shrunken log2 fold change” value was -0.0581.

Regarding RRIRSRPPRLPRPRPRPSSQPRP, the “shrunken log2 fold change” value was 0.0487.

Consider RRIRKRPPRLPRPRPRPQPPPRP, for which the “shrunken log2 fold change” value was found to be 0.672.

RRIRRRPPRLPRPRPRPVYCPRP: the “shrunken log2 fold change” value was -0.0322.

On to RRIRYRPPRLPRPRPRPQFFPRP, for which the “shrunken log2 fold change” value is -0.0644.

With RRIRVRPPRLPRPRPRPSVHPRP, the “shrunken log2 fold change” value was -0.0573.

RRIRLRPPRLPRPRPRPYWRPRP: the “shrunken log2 fold change” value came to 0.231.

RRIRRRPPRLPRPRPRPINRPRP: the “shrunken log2 fold change” value was determined as 0.0995.

Turning to RRIRLRPPRLPRPRPRPNEQPRP, the “shrunken log2 fold change” value is -0.0127.

Regarding RRIRGRPPRLPRPRPRPYVMPRP, the “shrunken log2 fold change” value is -0.0513.

As for RRIRDRPPRLPRPRPRPDLCPRP, the “shrunken log2 fold change” value was -0.0018.

For RRIRIRPPRLPRPRPRPQWHPRP, the “shrunken log2 fold change” value is -0.381.

Consider RRIRRRPPRLPRPRPRPNGGPRP, for which the “shrunken log2 fold change” value stood at 0.171.

For the sequence RRIRDRPPRLPRPRPRPWSLPRP, the “shrunken log2 fold change” value was 0.0709.

For the sequence RRIRFRPPRLPRPRPRPLTFPRP, the “shrunken log2 fold change” value was -0.391.

RRIRARPPRLPRPRPRPMSTPRP: the “shrunken log2 fold change” value is -0.0262.

For RRIRRRPPRLPRPRPRPQDYPRP, the “shrunken log2 fold change” value is -0.268.

RRIRTRPPRLPRPRPRPNNSPRP: the “shrunken log2 fold change” value is -0.61.

Take RRIRVRPPRLPRPRPRPSEVPRP: the “shrunken log2 fold change” value is -0.138.

For RRIRKRPPRLPRPRPRPGYNPRP, the “shrunken log2 fold change” value came to 0.178.

For the sequence RRIRCRPPRLPRPRPRPDHGPRP, the “shrunken log2 fold change” value is -0.234.

For the sequence RRIRYRPPRLPRPRPRPTCNPRP, the “shrunken log2 fold change” value is -0.351.

With RRIRARPPRLPRPRPRPFANPRP, the “shrunken log2 fold change” value was determined as 0.0657.

Take RRIRHRPPRLPRPRPRPYWAPRP: the “shrunken log2 fold change” value is -0.186.

As for RRIRGRPPRLPRPRPRPWWQPRP, the “shrunken log2 fold change” value amounted to 0.644.

Consider RRIRVRPPRLPRPRPRPISKPRP, for which the “shrunken log2 fold change” value was -0.184.

With RRIRSRPPRLPRPRPRPIFLPRP, the “shrunken log2 fold change” value is -0.335.

For the sequence RRIRFRPPRLPRPRPRPMGVPRP, the “shrunken log2 fold change” value is -0.457.

Values taken from the supplement of paper PMC9112550, “Optimization of the antimicrobial peptide Bac7 by deep mutational scanning” (BMC Biology, 2022).
